# Laboratory results reported in the supplement of paper PMC9112550, “Optimization of the antimicrobial peptide Bac7 by deep mutational scanning” (BMC Biology, 2022).
# Tested on: Escherichia coli TOP10
# Test: shrunken log2 fold change of peptide-encoding DNA abundance (4.5 h post-induction vs induction); higher = less antimicrobial activity (less host growth inhibition)
# Settings: time post-induction: 4.5 h; library: site-saturation at positions 5, 18, 19, 20
# 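Further: peptides expressed intracellularly from a pBAD plasmid library in pooled LB shake-flask culture, induced with 0.3% L-arabinose, DNA abundance read by NGS, three biological replicates, DESeq2 with apeglm shrinkage.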
row,Sequence,shrunken log2 fold change
1,RRIRTRPPRLPRPRPRPKSMPRP,-0.62
2,RRIRQRPPRLPRPRPRPWVGPRP,-0.0518
3,RRIRARPPRLPRPRPRPGDQPRP,0.804
4,RRIRDRPPRLPRPRPRPENPPRP,0.783
5,RRIRKRPPRLPRPRPRPKDLPRP,0.0142
6,RRIRPRPPRLPRPRPRPFWIPRP,-0.161
7,RRIRQRPPRLPRPRPRPGLQPRP,-0.0156
8,RRIRGRPPRLPRPRPRPDRYPRP,0.152
9,RRIRIRPPRLPRPRPRPTFIPRP,-0.677
10,RRIRCRPPRLPRPRPRPWPHPRP,-0.0205
11,RRIRERPPRLPRPRPRPSNGPRP,-0.0949
12,RRIRSRPPRLPRPRPRPEHSPRP,-0.182
13,RRIRQRPPRLPRPRPRPWSEPRP,-0.266
14,RRIRVRPPRLPRPRPRPPGFPRP,0.842
15,RRIRYRPPRLPRPRPRPEAPPRP,-0.0405
16,RRIRMRPPRLPRPRPRPLMKPRP,0.313
17,RRIRSRPPRLPRPRPRPHKNPRP,-0.283
18,RRIRERPPRLPRPRPRPISCPRP,-0.705
19,RRIRERPPRLPRPRPRPHFSPRP,0.061
20,RRIRNRPPRLPRPRPRPCDTPRP,-0.0137
21,RRIRPRPPRLPRPRPRPCFLPRP,-0.382
22,RRIRIRPPRLPRPRPRPQCPPRP,-0.472

row,Sequence,shrunken log2 fold change
1,RRIRPRPPRLPRPRPRPPTTPRP,0.327
2,RRIRSRPPRLPRPRPRPQFSPRP,-0.152
3,RRIRQRPPRLPRPRPRPCWRPRP,-0.0087
4,RRIRLRPPRLPRPRPRPEHEPRP,0.13
5,RRIRDRPPRLPRPRPRPYMYPRP,-0.194
6,RRIRGRPPRLPRPRPRPMMQPRP,1
7,RRIRSRPPRLPRPRPRPDDVPRP,0.14
8,RRIRWRPPRLPRPRPRPSQPPRP,-0.0613
9,RRIRWRPPRLPRPRPRPSQTPRP,0.657
10,RRIRNRPPRLPRPRPRPYQHPRP,-0.549
11,RRIRNRPPRLPRPRPRPWCMPRP,-0.312
12,RRIRARPPRLPRPRPRPTTWPRP,0.423
13,RRIRMRPPRLPRPRPRPFAQPRP,0.0306
14,RRIRQRPPRLPRPRPRPIYNPRP,-0.478
15,RRIRARPPRLPRPRPRPERWPRP,0.956
16,RRIRKRPPRLPRPRPRPWYKPRP,-0.0194
17,RRIRSRPPRLPRPRPRPCCEPRP,-0.22
18,RRIRYRPPRLPRPRPRPHTRPRP,-0.494
19,RRIRRRPPRLPRPRPRPEDRPRP,-0.154
20,RRIRQRPPRLPRPRPRPMPGPRP,0.0214
21,RRIRMRPPRLPRPRPRPKPWPRP,1.12
22,RRIRCRPPRLPRPRPRPPLCPRP,0.674

row,Sequence,shrunken log2 fold change
1,RRIRQRPPRLPRPRPRPMKSPRP,0.0232
2,RRIRTRPPRLPRPRPRPQRHPRP,0.19
3,RRIRYRPPRLPRPRPRPCVKPRP,-0.0312
4,RRIRTRPPRLPRPRPRPQCMPRP,-0.133
5,RRIRRRPPRLPRPRPRPEHMPRP,0.14
6,RRIRPRPPRLPRPRPRPITKPRP,-0.0256
7,RRIRCRPPRLPRPRPRPYWGPRP,-0.427
8,RRIRLRPPRLPRPRPRPREAPRP,0.641
9,RRIRLRPPRLPRPRPRPMEAPRP,-0.00122
10,RRIRWRPPRLPRPRPRPCDNPRP,0.0838
11,RRIRGRPPRLPRPRPRPFKQPRP,0.13
12,RRIRVRPPRLPRPRPRPYAYPRP,0.0587
13,RRIRSRPPRLPRPRPRPAVAPRP,0.0474
14,RRIRYRPPRLPRPRPRPFQDPRP,-0.139
15,RRIRARPPRLPRPRPRPFHSPRP,-0.217
16,RRIRMRPPRLPRPRPRPQYNPRP,-0.934
17,RRIRWRPPRLPRPRPRPSIEPRP,0.0114
18,RRIRKRPPRLPRPRPRPEKGPRP,-0.00382
19,RRIRGRPPRLPRPRPRPMQFPRP,0.184
20,RRIRCRPPRLPRPRPRPFHPPRP,-0.075
21,RRIRERPPRLPRPRPRPWSVPRP,-0.113
22,RRIRTRPPRLPRPRPRPFMWPRP,-0.119

row,Sequence,shrunken log2 fold change
1,RRIRHRPPRLPRPRPRPWRVPRP,0.0326
2,RRIRGRPPRLPRPRPRPRDCPRP,1.11
3,RRIRKRPPRLPRPRPRPGICPRP,0.0428
4,RRIRIRPPRLPRPRPRPFFQPRP,-0.412
5,RRIRPRPPRLPRPRPRPCAQPRP,-0.119
6,RRIRIRPPRLPRPRPRPKVSPRP,0.0423
7,RRIRVRPPRLPRPRPRPSVNPRP,-0.291
8,RRIRKRPPRLPRPRPRPFGWPRP,0.682
9,RRIRWRPPRLPRPRPRPETVPRP,-0.0769
10,RRIRARPPRLPRPRPRPASWPRP,0.537
11,RRIRARPPRLPRPRPRPQDSPRP,-0.0459
12,RRIRDRPPRLPRPRPRPGIMPRP,0.0786
13,RRIRLRPPRLPRPRPRPMKPPRP,-0.0332
14,RRIRVRPPRLPRPRPRPVPGPRP,0.0985
15,RRIRGRPPRLPRPRPRPGCNPRP,0.773
16,RRIRMRPPRLPRPRPRPIRWPRP,0.632
17,RRIRTRPPRLPRPRPRPCPLPRP,-0.325
18,RRIRLRPPRLPRPRPRPFEQPRP,0.305
19,RRIRVRPPRLPRPRPRPIKTPRP,0.059
20,RRIRWRPPRLPRPRPRPRMIPRP,0.693
21,RRIRRRPPRLPRPRPRPIPKPRP,0.0997
22,RRIRWRPPRLPRPRPRPWDMPRP,-0.00946

row,Sequence,shrunken log2 fold change
1,RRIRQRPPRLPRPRPRPVCDPRP,0.0934
2,RRIRNRPPRLPRPRPRPWGAPRP,0.0894
3,RRIRARPPRLPRPRPRPIEYPRP,-0.267
4,RRIRSRPPRLPRPRPRPDPMPRP,-0.0673
5,RRIRTRPPRLPRPRPRPYHDPRP,-0.13
6,RRIRQRPPRLPRPRPRPAFPPRP,0.0799
7,RRIRARPPRLPRPRPRPKKVPRP,0.708
8,RRIRHRPPRLPRPRPRPTYRPRP,-0.0234
9,RRIRTRPPRLPRPRPRPKIGPRP,-0.0689
10,RRIRARPPRLPRPRPRPKACPRP,0.19
11,RRIRYRPPRLPRPRPRPQFPPRP,-0.0877
12,RRIRDRPPRLPRPRPRPWHHPRP,-0.179
13,RRIRIRPPRLPRPRPRPRRPPRP,0.233
14,RRIRARPPRLPRPRPRPMKIPRP,0.275
15,RRIRHRPPRLPRPRPRPNVLPRP,-0.0715
16,RRIRIRPPRLPRPRPRPSYQPRP,-1.32
17,RRIRPRPPRLPRPRPRPIAHPRP,0.125
18,RRIRMRPPRLPRPRPRPLSNPRP,-0.0789
19,RRIRHRPPRLPRPRPRPLRKPRP,0.0993
20,RRIRLRPPRLPRPRPRPALHPRP,0.135
21,RRIRNRPPRLPRPRPRPAPVPRP,0.406
